# In PMC8168426 (ACS chemical biology, 2020):
# Ends that are not written are not given here. * marks the point of attachment. NHCH2CH2(5-OH-indol-3-yl) = Oc1ccc2[nH]cc(CCN*)c2c1; fluorescein = fluorescein label (C-terminal); Me3 = trimethyl (trimethyl-lysine); Me2 = dimethyl (dimethyl-lysine)
# T1: GST-PHD1 (S287–K347) of histone demethylase KDM5A (UniProt P29375 287-347)
# T1 sequence (looked up): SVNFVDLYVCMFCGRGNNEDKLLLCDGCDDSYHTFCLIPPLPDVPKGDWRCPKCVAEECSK
# T2: PHD1^287–347-KDAC8–6xHis fusion construct (UniProt P29375 287-347)
# T2 sequence (looked up): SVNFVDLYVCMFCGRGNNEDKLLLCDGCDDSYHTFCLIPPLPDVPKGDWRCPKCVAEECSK
# System: PHD1 domain of KDM5A
# Assay: not given
# Conditions: result in words; cited from earlier work
row,Molecule,Binding to PHD1 as previously established
1,H3 R2A: well-characterized H3 12-mer ligand with R2A mutation (AATKQTARKSGC),strongly reduces binding
2,H3K9me3: well-characterized H3 12-mer ligand bearing K9me3 (ARTKQTARKSGC; trimethyl-lysine at 9 (H3K9me3)) [Ligand H3K9me3],does not impact PHD1-H3 association
3,N-terminally acetylated H3: N-terminally acetylated H3 12-mer peptide (Ac-ARTKQTARKSGC),not bind PHD1

# Target: T1, GST-PHD1 (S287–K347) of histone …
# Assay: fluorescence polarisation
# Conditions: not given
row,Ki [µM],Molecule
1,0.75,"ARTKATARKS (peptide, UniProt P68431 2-11, looked up) [H3 Q5A 10-mer peptide]"
2,> 100,"ARYKQTARKS (peptide, UniProt P68431 2-11, looked up) [H3 T3Y 10-mer peptide]"
3,> 100,"ARAKQTARKS (peptide, UniProt P68431 2-11, looked up) [H3 T3A 10-mer peptide]"
4,> 100,"ARYKYTARKS (peptide, UniProt P68431 2-11, looked up) [H3 T3Y Q5Y 10-mer peptide]"
5,> 100,"ARDKQTARKS (peptide, UniProt P68431 2-11, looked up) [H3 T3D 10-mer peptide]"
6,> 100,"ARFKQTARKS (peptide, UniProt P68431 2-11, looked up) [H3 T3F 10-mer peptide]"

# Target: T2, PHD1^287–347-KDAC8–6xHis fusion …
# Assay: PI-SAMDI
# Conditions: not given
row,Molecule,binding result
1,ARTK(Me3)QTARKSGC (not fully specified (C-terminus)) [H3K4me3 12-mer ligand],binds
2,ARTKQTARKSGC (not fully specified (C-terminus)) [unmodified H3 12-mer ligand (first 10 N-terminal residues of H3 and a GC moiety)],binds
3,ARTKQTARKSGC (not fully specified; trimethyl-lysine at 9 (H3K9me3)) [H3K9me3 12-mer ligand],binds

# Second part, the molecule after the results:
row,binding result,Molecule
1,binds,ARTK(Me)QTARKSGC (not fully specified (C-terminus)) [H3K4me1 12-mer ligand]
2,binds,ARTK(Me2)QTARKSGC (not fully specified (C-terminus)) [H3K4me2 12-mer ligand]
3,binds,ARTKQ(NHCH2CH2(5-OH-indol-3-yl))TARKSGC (not fully specified (C-terminus)) [Q5-serotonylated H3 12-mer ligand]
4,binds,ARTKETARKSGC [H3 Q5E 12-mer ligand]
5,binds,ARTKYTARKSGC [H3 Q5Y 12-mer ligand]

# Target: T2, PHD1^287–347-KDAC8–6xHis fusion …
# Assay: PI-SAMDI
# Conditions: not given
# Remark: another data set of the same source
row,binding result,Molecule
1,binds,"ARVKWC [H3 T3V Q5W 6-mer ligand (ARXKZC with X = V, Z = W)]"
2,binds,"ARYKQC [H3 T3Y 6-mer ligand (ARXKZC with X = Y, Z = Q)]"
3,binds,"ARYKYC [H3 T3Y Q5Y 6-mer ligand (ARXKZC with X = Y, Z = Y)]"
4,binds,"ARVKRC [H3 T3V Q5R 6-mer ligand (ARXKZC with X = V, Z = R)]"
5,binds,"ARTKRC [H3 Q5R 6-mer ligand (ARXKZC with X = T, Z = R)]"
6,binds,"ARYKRC [H3 T3Y Q5R 6-mer ligand (ARXKZC with X = Y, Z = R)]"
7,binds,"ARTKSC [H3 Q5S 6-mer ligand (ARXKZC with X = T, Z = S)]"

# Target: T1, GST-PHD1 (S287–K347) of histone …
# Assay: fluorescence polarisation
# Conditions: not given
# Remark: another data set of the same source
row,binding result,Molecule
1,binds,ARTKQTARKSGC (not fully specified (C-terminus)) [unmodified H3 12-mer ligand (first 10 N-terminal residues of H3 and a GC moiety)]
2,binds,"ARTKQTARKS-fluorescein (peptide, UniProt P68431 2-11, looked up) [H3 peptide (1–10) carrying a C-terminal fluorescein label]"
3,binds,ARTKQ(NHCH2CH2(5-OH-indol-3-yl))TARKSGC (not fully specified (C-terminus)) [Q5-serotonylated H3 12-mer ligand]
